The series in a line: yeast display, Sf9 membrane polyspecificity reagent, FACS + sequencing; frameworks hold sequencing errors. The method in brief:
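Nanobodies came from a synthetic yeast display library in Saccharomyces cerevisiae BJ5465, induced with galactose for 36–48 hours and stained for 1 hour at 4 °C with 10% biotinylated, detergent-solubilized Sf9 membrane reagent. Cells were enriched on streptavidin microbeads and then FACS-sorted, with low and high (top ~1%) gates set on anti-HA fluorescence for expression and streptavidin fluorescence for reagent binding. Each polyreactivity label reflects the gate a clone came from. Genes were amplified by colony PCR, sequenced by MiSeq 2 × 250 and filtered by CDR length.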
Turning to “QVQLVESGGGLVQAGGSLRLSCAASGRIFGDYGMGWYRQAPGKDRELVAAITDRGGTTYYADSVKGRFTISRDNAKNTVYVQKNSLQPEDTAVYYCNADTVVVWYSPSREYDYWGQGTQVTVSS”, the “polyreactivity (PSR sort gate)” value is reported as “low polyreactivity”. As for “QVQLVESGGGLVQAGGSLRLSCAASGRIFGEYAMGWYRQAPGKERELVAAISGGGSTYYADSVKGRFTISRDNAKNTVYLQMNSLKPEDTAVFYCAVYSVYHEYDYWGQGTQVTVSS”, the “polyreactivity (PSR sort gate)” value is recorded as “low polyreactivity”.

“QVQLVESGGGLVQAGGSLRLSCAASGRIFGFNAMGWYRQAPGKERQLVAAISGRSGRTYYADSVKGRFTISRDNAKNTVYLQLNSLIPEDTAVYYCNTVGYRGPSWYVYWGQGTQVTVSS”: the “polyreactivity (PSR sort gate)” value is given as “high polyreactivity”. To “QVQLVESGGGLVQAGGSLRLSCAASGRIFGFYTIGWYRQAPGKERELVATISWSGSGTYYADSVKGRFTISRDNAKNTVYLQMNSLKPEDTAVYYCNADWYYVGYDYWGQGTQVTVSS” belongs “low polyreactivity”; to “QVQLVESGGGLVQAGGSLRLSCAASGRIFGGNAMGWYRQAPGKERELVAAINSSGGRTYYADSVKGRFTISRDNAKNTVYLQMNSLKPEDTAVYYCAARVGGNWYDYWGQGTQVTVSS”, “high polyreactivity”; to “QVQLVESGGGLVQAGGSLRLSCAASGRIFGGYAMGWYRQAPGKERELVAAIRWSGGSTYADSVKGRFTISRDNAKYTVYLQMNSLKPEDTAVYYCNTVRSPPGHDYWGQGTQVTVSS”, “low polyreactivity”. To “QVQLVESGGGLVQAGGSLRLSCAASGRIFGGYAMGWYRQAPGKERELVAAISNGGSTYYADSVKGRFTISRDNAKNTVYLQMNSLKPEDTAVYYCAARWNWTGYRYDHWGQGTQVTVSS” belongs “low polyreactivity”; to “QVQLVESGGGLVQAGGSLRLSCAASGRIFGGYDMGWYRQAPGKERELVAAMTSDSSTTYADSVKGRFTISRDNAKNTVYLQMNSLKPEDTAVYYCAVQVNGPVFYRPYLDYDYWGQGTQVTVSS”, “low polyreactivity”.

Turning to “QVQLVESGGGLVQAGGSLRLSCAASGRIFGHYAMGWYIQAPGKERELVAAISRGGSTNYADSVKGRFTISRDNAKNTVYLQINSLKPVDNAVYYCNAAYSDYEYDYWGQGTQVSVSS”, the “polyreactivity (PSR sort gate)” value is listed as “low polyreactivity”. Next, “QVQLVESGGGLVQAGGSLRLSCAASGRIFGHYAMGWYRQAPGKEMELVAAITIGGSTYYADSVKGRFTISRDNAKNTVYLQMNSLKPEDTAVYYCAKVGSNYRGRLGYWGQGTQVTVSS”: “low polyreactivity”; “QVQLVESGGGLVQAGGSLRLSCAASGRIFGHYAMGWYRQAPGKERELVAAISRGGSTYYADSVKGRFTISRDNAKNTVYLQMNSLKPEDTAVYYCNTTKAYGSLWWRGDYWGQGTQVTVSA”: “high polyreactivity”. In the case of “QVQLVESGGGLVQAGGSLRLSCAASGRIFGHYAMGWYRQAPGKERELVASITDGTSTNYADSVKGRFTISRDNAKNTVYLQMNSLKPEDTADYYCAADDRLQFPRGDYCGQGTQVTVSS”, the “polyreactivity (PSR sort gate)” value is recorded as “low polyreactivity”.

On to “QVQLVESGGGLVQAGGSLRLSCAASGRIFGINAMGSYRQAPGKERELVAAINWSGGSTYYADSVKGRFTISRDNAKNTVYLQMNSLKPEDTAVYYCAAQKYKRVGYWGQGTQVTVSS”, for which the “polyreactivity (PSR sort gate)” value is on record as “high polyreactivity”. Next, “QVQLVESGGGLVQAGGSLRLSCAASGRIFGINVMGWYRQAPGKERELVAAISYRTGSTYYADSVKGRFTISRDNAKNTVYLQMNSLKPEDTAVYYCAAQRRIRTAWYDYWGQGTQVTVSS”: “high polyreactivity”; “QVQLVESGGGLVQAGGSLRLSCAASGRIFGIYAMGWYRQAPGKERELVAAINSGDSTYADSVKGRFTISRDNAKNTVYLQMNSLKPEDTAVYYCAAEESTSSWSINDYWGQGTQVNVSS”: “low polyreactivity”. On to “QVQLVESGGGLVQAGGSLRLSCAASGRIFGIYAMGWYRQAPGKERELVAAITWNGGSTYYADSVKGRFTNSRDNAKNTVYLQMNSLKPEDTAVYYCAARTADYSYGRRVVTRYGYWGQGTQVTVSS”, for which the “polyreactivity (PSR sort gate)” value was “high polyreactivity”. Next, “QVQLVESGGGLVQAGGSLRLSCAASGRIFGIYAMGWYRQAPGKERELVASITDGTITNYADSVKGRFTISRDNAKNTVYLQMNSLIPEDTAVYYCAAGTQAHAYVVRPIEMDYWGQGTQVTVSS”: “low polyreactivity”; “QVQLVESGGGLVQAGGSLRLSCAASGRIFGLNAMGRYRQAPGKERELVAAISERDGSTYYADSVKGRFTISRDNAKNTVYLQMNSLKPEDTAVYYCAAEKPVHYVRGVHYDYWGQGTQVTVSS”: “low polyreactivity”; “QVQLVESGGGLVQAGGSLRLSCAASGRIFGLNAMGWYRQAPGKERELVAAIDRSGASTYYADSVKGRFTISRDNAKNTVYLQMNSLKPEDTAVYYCAAESYLSGEEYDYWGQGTQVTVSS”: “high polyreactivity”. For “QVQLVESGGGLVQAGGSLRLSCAASGRIFGLNTMGWYRQAPGKERELVAAITSSAGSTYYADSVKGRFTISRDNAKNTVYLQMNSLKPEDTAVYYCAARVSYLGSFTSQRYYYWGQGTQVTVSS”, the “polyreactivity (PSR sort gate)” value was “high polyreactivity”. Take “QVQLVESGGGLVQAGGSLRLSCAASGRIFGLYAMGWYRQAPGKARELVAAISTRGGSTRYADSVKGRFTISRDTAKNTVYLQMNSLKPEDTAVYYCAKQPKPPPVTGYDYWGQGTQVTVSS”: the “polyreactivity (PSR sort gate)” value is reported as “high polyreactivity”.

Take “QVQLVESGGGLVQAGGSLRLSCAASGRIFGLYAMGWYRQAPGKERELVAAIRGRGGRTSYADSVKGRFTISRDNAKNTVYLQMNSLKPEDTAVYYCNAELYPWPGVVRYNYWGHGTQVTVSS”: the “polyreactivity (PSR sort gate)” value is listed as “high polyreactivity”.

On to “QVQLVESGGGLVQAGGSLRLSCAASGRIFGLYAMGWYRQAPGKERELVAAISRRGGTTYYADSVKGRFTISRDNAKNTVYLQMNSLKPEDTAVYYCAAATVYLSWYYWGQGTQVTVSS”, for which the “polyreactivity (PSR sort gate)” value is given as “high polyreactivity”. Next, “QVQLVESGGGLVQAGGSLRLSCAASGRIFGLYAMGWYRQAPGKERELVAAISWSGGRTYYADSVKGRFTISRDNAKNNVYLQMNSLKPEDTAVYYCAARSYYRSQYGFDYWGQGTQVTVSS”: “high polyreactivity”; “QVQLVESGGGLVQAGGSLRLSCAASGRIFGLYAMGWYRQAPGKERELVAAITSSTGSTYYADSVKGRFTISRDNAKNTVYLQMNSLKPEDTAVYYCAARRYGRNWHYDYWGQGTQVTVSS”: “high polyreactivity”; “QVQLVESGGGLVQAGGSLRLSCAASGRIFGLYARGWSRQAPGKERELVAAYADSVKGRFTISRENAKNTVYLQMNSLKPEDTAVYYCAKGPLYAGYSIDLRDFNYWGQGTQVTVSS”: “low polyreactivity”. On to “QVQLVESGGGLVQAGGSLRLSCAASGRIFGNNAMGWYRQAPGKERELVAAITSGGSTNYADSVKGRFTISRDNAKNTVYLQMNSLKPEDTAVYYCAKRWVYKYRHYDYWGQGTQVTVSS”, for which the “polyreactivity (PSR sort gate)” value is “low polyreactivity”. Regarding “QVQLVESGGGLVQAGGSLRLSCAASGRIFGNYAMGWYRQAPGKERELVAAITSGARTYYADSVKGRFTISRDNAKNTVYLQMNSLKPEDTAVYYCAAYHKSYSNRYDYWGQGTHVTVSS”, the “polyreactivity (PSR sort gate)” value is recorded as “high polyreactivity”. Next, “QVQLVESGGGLVQAGGSLRLSCAASGRIFGPNAMGWYRQAPGKERELVASISYSGGSTYYADSVKGRFTISRDNAKNTVYLQMNSLKPEDTAVYYCAKGGYWRGYNYWGQGTQVTVSS”: “low polyreactivity”; “QVQLVESGGGLVQAGGSLRLSCAASGRIFGPYAMGWYRPAPGKERELVAVISLSGGRTYYADSVKGRFTISRDNAKNTVYLQMNSLKPEDTAVYYCAAARIYVGRRFDFWGQGTQVTVSS”: “high polyreactivity”.

The values are drawn from the nanobody polyreactivity screen of Harvey et al. (2022).
